Source: ChEMBL document CHEMBL1128918, “Deuterium isotope effects on porphobilinogen synthesis catalysed by 5-aminolaevulinic acid dehydratase” (Bioorg Med Chem Lett, 1996)

Substrate: NCC(=O)CCC(=O)O
Experiment: The Michaelis-Menten rate of reaction catalyzed by ALA dehydratase from Bacillus subtilis measured spectrophotometrically

B1: Delta-aminolevulinic acid dehydratase (Homo sapiens), P13716 (protein)
chain: MQPQSVLHSGYFHPLLRAWQTATTTLNASNLIYPIFVTDVPDDIQPITSLPGVARYGVKRLEEMLRPLVEEGLRCVLIFGVPSRVPKDERGSAADSEESPAIEAIHLLRKTFPNLLVACDVCLCPYTSHGHCGLLSENGAFRAEESRQRLAEVALAYAKAGCQVVAPSDMMDGRVEAIKEALMAHGLGNRVSVMSYSAKFASCFYGPFRDAAKSSPAFGDRRCYQLPPGARGLALRAVDRDVREGADMLMVKPGMPYLDIVREVKDKHPDLPLAVYHVSGEFAMLWHGAQAGAFDLKAAVLEAMTAFRRAGADIIITYYTPQLLQWLKEE
- Km: 241 µM [middle of 4 runs]
